# “And” between values parts separate entries of the source, which are not always exact repeats. Equal entries are not always repeated. *1 amine or outer side, *2 acyl side, *3 side chain or, on linkers, in order; H or OH if unused. Where a SMILES comes first, the peptide text is derived from it. Primed or numbered codes have the meaning given here. Where no end group is shown, it is not given here. [ ]: non-standard residue; d: D form. The star is where a group is joined. Aha′ = its azide, alkyne or alkene has reacted where a group follows in round brackets; Den = denatonium (bitter payload), attached at the C-terminus via CH2-NH2; DBCO‑Sulfo‑Cy5 = fluorescent dye clicked to Aha; AFDye488‑DBCO = fluorescent dye clicked to Aha; X1 = CC[N+](CC)(CC(=O)[*:2])Cc1ccc(CN[*:1])cc1; NH(2,6-Me2-phenyl) = Cc1cccc(C)c1N*
# T1: MMP-1 (Homo sapiens, UniProt P03956)
# T1 construct: purchased Merck Millipore
# T1 sequence (P03956 100-469): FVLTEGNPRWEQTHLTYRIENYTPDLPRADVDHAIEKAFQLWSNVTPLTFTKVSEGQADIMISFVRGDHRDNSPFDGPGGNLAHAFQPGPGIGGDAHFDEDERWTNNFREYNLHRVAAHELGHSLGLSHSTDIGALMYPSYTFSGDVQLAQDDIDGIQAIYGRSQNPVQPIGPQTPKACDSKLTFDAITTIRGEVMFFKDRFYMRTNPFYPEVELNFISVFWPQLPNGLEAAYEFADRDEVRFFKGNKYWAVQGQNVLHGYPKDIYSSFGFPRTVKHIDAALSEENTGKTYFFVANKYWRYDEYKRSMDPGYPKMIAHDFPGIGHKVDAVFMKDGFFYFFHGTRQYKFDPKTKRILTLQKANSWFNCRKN
# Columns and labels:
# MMP-1 = biological target: T1, MMP-1; assay: Sensor cleavage by MMP-1; format: biochemical; settings: for cleavage rate (multiplexing): sensors in mixture, 17.5 nM MMP-1, incubation 15 minutes
# Description: (§1) Pro-Matrix-metalloproteinases (MMP-1, MMP-8, and MMP-9) (Merck Millipore, Burlington, MA, USA) were activated prior usage. To activate Pro-MMPs a fresh 50 mM 4-Aminophenylmercuric acetate (APMA) stock solution in 0.1 M NaOH was prepared. The stock solution was added in a 10:1 (v/v) ratio to Pro-MMPs (Pro-MMPs:APMA) to reach a final concentration of 5 mM APMA. The solution was incubated for 3 h at 37 °C without agitation. Following incubation, the activated MMPs were stored in aliquots at -80 °C.
# Lyophilized sensors and Y3 were solubilized in MMP buffer (200 mM NaCl, 50 mM Tris-HCI, 5 mM CaCl2, 1 µM ZnCl2, 0.05 % Brij35 at pH 6.8-7.0) to 1 mM stock solutions. Cleavage was performed at 37 °C under rigorous shaking in 30 µL MMP buffer containing 0.1 mM of the respective sensor/peptide and 900 ng/mL MMP-8, or a molar equivalent of MMP-1 or MMP-9 for single cleavage conditions. Cleavage of sensors in mixture was performed with sensor concentrations of 25 µM for each sensor. The reaction was stopped via addition of 5 mM EDTA final concentration.
# (§2) Experiments were performed n = 5. Cleavage was analyzed via fluorescent detection via HPLC with following wavelengths: SP3 (absorption: 646 nm; emission: 661 nm), SP5 (absorption: 494 nm; emission: 517 nm), SP7 (absorption: 553 nm; emission: 566 nm) and SN3 (absorption: 280 nm; emission: 350 nm). Y3 cleavage was analyzed as described before. Cleavage percent was analyzed by comparing the AUC of the main peak from the compound incubated with MMP and in absence of MMP. Cleavage percent was then normalized by multiplying cleavage results with a correction factor. The correction factor was determined individually for every experiment/MMP by dividing Y3 cleavage results acquired in protease sensitive linker identification study by cleavage results of Y3 in individual sensor cleavage experiments (Figure 3 D-F).
# [1] = Sensor cleavage in human saliva; format: biochemical; settings: for cleavage in saliva from patients compared to saliva from healthy donors: periodontitis patients vs. healthy donors
# Description: Lyophilized sensors were solubilized in MMP buffer to 0.05 mM each and mixed with saliva 1:1 (v/v) to reach a final concentration of 25 µM per sensor. The solution was incubated for 15 min at 37 °C under rigorous shaking and the reaction was stopped via addition of 5 mM EDTA final concentration. The samples were diluted 1:2 with acetonitrile, 1:5 with water (1:10 total dilution) and analyzed via HPLC as described before. Cleavage efficiency was analyzed by comparing the AUC of the newly formed peaks compared to the total AUC of the combined peaks. Peaks with LU < 1 were considered below the limit of detection and set to 0.5 LU for further analysis.
# The study participants were recruited from patients visiting the department of Periodontology of the University Hospital of Würzburg, Germany between Oct/2019 to Dec/2020. Periodontally healthy patients as well as patients with periodontal diseases of varying severity (gingivitis, periodontitis) were included. The periodontally diseased patients were in different stages of treatment (untreated patients before active initial therapy, treated recall patients in regular supportive aftercare). Eligibility criteria were age 18 to 99 years. Patients of both sexes, with and without periodontal disease were included in the study.
# Periodontal examinations were obtained from all study participants comprising the documentation of missing teeth, probing pocket depths (PPD), recession, bleeding on probing (BoP), clinical attachment level (CAL), furcation involvement, tooth mobility and plaque control record (PlaCR). Demographic details and general health profile of the participants including current intake of medications and frequency of smoking was documented using a questionnaire. CAL, PPD and BoP were recorded at 6 sites per tooth (mesio-buccal, buccal, disto-buccal, disto-oral, oral, mesio-oral) using a pressure calibrated computer aided Florida Probe handpiece. Any bleeding spot appearing within 30 seconds after probing was recorded as a BoP-positive site. Furcation involvement was determined using a manual furcation probe (Nabers Probe). The total amount of periodontal inflammation present in each patient was calculated from the recorded BoP, CAL and PPD scores using the PISA-Index. Collected samples were quality-controlled hosted by the certified centralized biobank of the medical faculty of the University of Würzburg. […]
# Saliva samples were prepared as above. The MMP-8 activity assay (Quickzyme, Leiden, Netherlands) was performed following provided protocols. In brief, reagents were prepared as described by protocols. […] Absorbance was measured at 405 nm in a microplate reader (Tecan Infinite F50, Crailsheim, Germany) at 0, 2, 4 and 6 h. […]
# MMP-8 = biological target: T2, MMP-8 (Homo sapiens, UniProt P22894); assay: Sensor cleavage by MMP-8; format: biochemical; settings: sensors in mixture, 17.5 nM MMP-8, incubation 15 minutes
# T2 construct: purchased Merck Millipore
# T2 sequence (P22894 101-467): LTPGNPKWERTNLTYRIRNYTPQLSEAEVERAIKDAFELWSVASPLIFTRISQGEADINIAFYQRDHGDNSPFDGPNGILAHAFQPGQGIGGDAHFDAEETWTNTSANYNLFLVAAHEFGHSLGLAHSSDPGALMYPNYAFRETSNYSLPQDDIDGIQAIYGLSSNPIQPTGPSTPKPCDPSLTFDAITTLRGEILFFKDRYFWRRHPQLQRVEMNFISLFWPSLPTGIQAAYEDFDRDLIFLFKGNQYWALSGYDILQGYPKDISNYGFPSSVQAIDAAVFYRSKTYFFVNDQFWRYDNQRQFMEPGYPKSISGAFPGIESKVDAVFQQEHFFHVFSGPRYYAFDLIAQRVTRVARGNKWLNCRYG
# Description: as §1
# (§3) Lyophilized sensors and Y3 were solubilized in MMP buffer (200 mM NaCl, 50 mM Tris-HCI, 5 mM CaCl2, 1 µM ZnCl2, 0.05 % Brij35 at pH 6.8-7.0) to 1 mM stock solutions. […]
# as §2, with “Cleavage percent was then normalized by multiplying cleavage results with a correction factor.” left out
# MMP-9 = biological target: T3, MMP-9 (Homo sapiens, UniProt P14780); assay: Sensor cleavage by MMP-9; format: biochemical
# T3 construct: purchased Merck Millipore
# T3 sequence (P14780 107-707 limits assumed): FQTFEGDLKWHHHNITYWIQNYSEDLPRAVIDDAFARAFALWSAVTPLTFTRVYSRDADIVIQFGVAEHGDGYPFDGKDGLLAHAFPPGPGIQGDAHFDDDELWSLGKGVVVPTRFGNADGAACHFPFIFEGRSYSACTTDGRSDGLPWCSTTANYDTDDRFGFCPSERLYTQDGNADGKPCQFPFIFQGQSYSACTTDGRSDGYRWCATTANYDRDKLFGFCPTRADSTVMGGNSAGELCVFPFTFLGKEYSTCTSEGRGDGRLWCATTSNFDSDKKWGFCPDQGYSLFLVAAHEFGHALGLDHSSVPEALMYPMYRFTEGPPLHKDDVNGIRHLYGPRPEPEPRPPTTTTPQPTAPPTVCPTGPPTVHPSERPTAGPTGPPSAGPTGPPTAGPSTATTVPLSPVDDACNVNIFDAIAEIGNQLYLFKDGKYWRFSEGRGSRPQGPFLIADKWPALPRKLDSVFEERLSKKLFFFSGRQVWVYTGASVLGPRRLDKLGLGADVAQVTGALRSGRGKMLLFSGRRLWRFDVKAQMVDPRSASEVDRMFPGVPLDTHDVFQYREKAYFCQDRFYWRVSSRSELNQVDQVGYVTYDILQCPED
# Description: as §1, §3
# as §2, with “Cleavage percent was then normalized by multiplying cleavage results with a correction factor.” left out
# [2] = biological target: MMP mix (a mixture of MMPs 1, 8, and 9); assay: cell-based or functional assay
# [3] = control saliva samples, per patient, sensors in mixture, 25 µM per sensor, 15 min at 37 °C
molecule,measurement,setting,value
SY3: sensor from PSL-Y3: Y3a with C-terminal L-azidohomoalanine clicked to fluorescent dye DBCO-Sulfo-Cy5 (Ac-GSGSGPLALVGAGSGS[Aha′](DBCO‑Sulfo‑Cy5)),cleavage rate (multiplexing),MMP-1,cleaved most effectively
same,Cleavage SY3,[1]; [3],1.39% (2×) and 3.77% and 3.71% and 2.96% and 0.34% and 4.60% and 1.80% and 5.40% and 0.29% and 11.05% and 1.60% and 1.07% and 0.38% and 0.37% and 0.31%
same,cleavage in saliva from patients compared to saliva from healthy donors,[1],discriminated against periodontitis
same,cleavage rate (multiplexing),MMP-8,cleaved most effectively
SY5: sensor from PSL-Y5: Y5a with C-terminal L-azidohomoalanine clicked to fluorescent dye AFDye488-DBCO (Ac-GSGSGALELVGAGSGS[Aha′](AFDye488‑DBCO)),cleavage rate (multiplexing),MMP-1,not MMP-1 or MMP-9
same,Cleavage SY5,[1]; [3],2.55% and 4.69% and 2.64% and 2.11% and 0.17% (2×) and 3.56% and 2.25% and 4.88% and 0.14% and 11.04% and 2.84% and 0.18% (2×) and 0.16% and 0.15%
same,cleavage in saliva from patients compared to saliva from healthy donors,[1],discriminated against periodontitis
same,cleavage rate (multiplexing),MMP-8,responded to MMP-8
same,cleavage rate (multiplexing),"MMP-9; sensors in mixture, 17.5 nM MMP-9, incubation 15 minutes",not MMP-1 or MMP-9
"CC[C@H](C)[C@H](NC(=O)CNC(=O)[C@H](CCC(N)=O)NC(=O)[C@@H]1CCCN1C(=O)CNC(=O)[C@H](CO)NC(=O)CNC(=O)[C@H](CO)NC(=O)CNC(C)=O)C(=O)N[C@@H](C)C(=O)NCC(=O)N[C@@H](C)C(=O)NCC(=O)N[C@@H](CO)C(=O)NCC(=O)N[C@@H](CO)C(=O)NCc1ccc(C[N+](CC)(CC)CC(=O)Nc2c(C)cccc2C)cc1 [S1, Ac-GSGS-GPQGIAGA-GSGS-Den] (Ac-GSGSGPQGIAGAGSGS[X1]-{NH(2,6-Me2-phenyl)})",maximum cleavage,"MMP-1; MMP-1, 15 min, concentrations ranging from 1 to 10 nM",7%
same,maximum cleavage,"MMP-9; MMP-9, 15 min, concentrations ranging from 1 to 10 nM",10%
"Ac-GSGSGPQGIAGAGSGS-Den [Sensor S1, Ac-GSGS-GPQGIAGA-GSGS-Den]","cleavage rate (4 nM MMP mix, 5 min, HPLC)",[2],< 1%
same,"cleavage rate (8 nM MMP mix, 5 min, HPLC)",[2],> 20%
